# From paper PMC13104032, “Prion Protein-Derived Cell-Penetrating Peptide Inhibits Type II Diabetes-Associated Islet Amyloid Polypeptide Aggregation and Cytotoxicity” (Biochemistry, 2026)
# No end group written: not given here.
# T1: human islet amyloid polypeptide (IAPP), C-terminally amidated (human, C-terminal amide)
# T1 construct: islet amyloid polypeptide (amylin), human, the 37-residue peptide hormone, residues 1-37; numbers count on: the mature protein; also called amylin
# T1 chain: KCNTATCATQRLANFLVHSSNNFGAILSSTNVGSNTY
# Target: T1, human islet amyloid polypeptide (IAPP), …
# Test: native MS
# Conditions: both partners purified
binder,measurement,value
MLRTKDLIWTLFFLGTAVSKKRPKP-NH2 (also called NPr; CPP) [NCAM1-PrP (NCAM1(1-19)-PrP(23-28)) cell-penetrating peptide construct],stoichiometry N,1
